This assay addresses purified EphA2 (UniProt P29317 25-534, limits assumed). As to the kind of experiment: binding to purified EphA2; method not stated.

A word on the Kd: it is the concentration at which binding is half-saturated. Low readings indicate tighter binding, high ones weaker binding.

Primed or numbered codes have the meaning given here. [ ]: non-standard residue; d: D form. PEG11′ = not defined here

Sequence of purified EphA2 (P29317 25-534 limits assumed): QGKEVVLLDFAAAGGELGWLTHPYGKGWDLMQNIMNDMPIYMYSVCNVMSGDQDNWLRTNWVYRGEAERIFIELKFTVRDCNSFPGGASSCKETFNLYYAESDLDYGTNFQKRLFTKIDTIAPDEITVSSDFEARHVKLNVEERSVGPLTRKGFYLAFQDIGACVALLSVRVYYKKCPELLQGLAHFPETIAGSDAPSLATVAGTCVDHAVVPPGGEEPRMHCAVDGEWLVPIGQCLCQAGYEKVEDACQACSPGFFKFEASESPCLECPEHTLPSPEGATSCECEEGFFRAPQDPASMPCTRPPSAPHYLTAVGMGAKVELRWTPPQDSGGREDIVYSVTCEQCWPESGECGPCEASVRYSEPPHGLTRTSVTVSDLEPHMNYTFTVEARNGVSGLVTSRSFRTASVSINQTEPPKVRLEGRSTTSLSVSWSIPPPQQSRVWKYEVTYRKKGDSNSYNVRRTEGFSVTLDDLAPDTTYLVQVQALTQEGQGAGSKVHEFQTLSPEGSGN

B1: MGS_H1299.2 V4 (peptide)
peptide: Ac-YAAWPASGAWT[PEG11′]C-NH2
notes: Optimized MGS peptide from phage display (parent H1299.2); also called MGS_1299.2 V4
In the case of B1, the Kd was 3.2 nM.

For the origin of these results see patent publication US20240209041A1 (SRI INTERNATIONAL, published 2024).
